Assay results taken from the RNAGym collection of RNA variant scans (doi:10.7554/elife.80360).

B1: Hairpin Ribozyme (parent)
chain: GUCCUCUUUCACGUGCGCGUGAAAGAGAGAAGUGAACCAGAGAAACACACGUUGUGGUAUAUUACCUGGUA

Variants of: B1
Assay: self-cleavage, relative activity (ratio to wild type); higher = more cleavage; co-transcriptional

| Variant | self-cleavage |
| --- | --- |
| A24C G57U | 0.14 |
| A24C G57C | 0.131 |
| A22G A26C | 0.649 |
| A23C A30C | 0.246 |
| A24C A45U | 0.0791 |
| A22C G68A | 0.165 |
| A22C G68U | 0.262 |
| A22C C46A | 0.183 |
| A23C A26C | 0.507 |
| A23G G40C | 0.16 |
| A23C C46A | 0.131 |
| A23G A36C | 0.69 |
| A22C G51U | 0.919 |
| A23G G27U | 0.254 |
| A23C A45C | 0.0875 |
| A24C C50G | 0.326 |
| A23G C50U | 0.43 |
| A23G A28U | 0.417 |
| A22G A59U | 0.0393 |
| A23G C37U | 0.466 |
| A22G A61U | 0.159 |
| A22G A61C | 0.337 |
| A22C C48A | 0.291 |
| A22C C48U | 0.235 |

| Variant | self-cleavage |
| --- | --- |
| A22C C48G | 0.138 |
| A22G A30G | 0.0887 |
| A22G A30C | 0.182 |
| A22G A30U | 0.0767 |
| A24C G27C | 0.228 |
| A22U C50G | 0.223 |
| A24G A59U | 0.153 |
| A24G A59C | 0.213 |
| A24C A71U | 0.696 |
| A24C G34A | 0.895 |
| A23U A45C | 0.111 |
| A22C U62A | 0.128 |
| A22C U62G | 0.155 |
| A23U A35G | 0.967 |
| A23U A35C | 0.848 |
| A22G A36G | 0.757 |
| A23C A28U | 0.501 |
| A22U U58A | 0.589 |
| A22U U58G | 0.769 |
| A22U C46U | 0.117 |
| A22U G42C | 0.325 |
| A24C A30U | 0.146 |
| A24C A30C | 0.242 |
| A22C C66U | 0.649 |

| Variant | self-cleavage |
| --- | --- |
| A22C C66A | 0.216 |
| A24C U52C | 0.872 |
| A23U A41G | 0.749 |
| A23G A44U | 0.0965 |
| A23C A36G | 1.08 |
| A24G A41U | 1.05 |
| A24G A43U | 0.104 |
| A24G A43C | 0.19 |
| A24C A39C | 0.554 |
| A23U U33C | 0.144 |
| A23G U53G | 0.706 |
| A23C C66G | 0.166 |
| A22G C37A | 0.312 |
| A22G C37U | 0.646 |
| A24C G42C | 0.342 |
| A24C G42A | 0.195 |
| A23U G57U | 0.307 |
| A23U G57C | 0.211 |
| A23C G51A | 0.83 |
| A23C G51C | 0.804 |
| A22U C38G | 0.184 |
| A23U C48A | 0.157 |
| A24C A43G | 0.157 |
| A24C A43C | 0.0956 |

| Variant | self-cleavage |
| --- | --- |
| A22G U53A | 0.926 |
| A24C A41U | 0.996 |
| A24C A41C | 1.01 |
| A23C U53A | 0.757 |
| A23G G54A | 0.489 |
| A23C A39U | 0.269 |
| A23C A35C | 0.797 |
| A23C A35U | 0.559 |
| A24G C37U | 0.294 |
| A24G C37G | 0.359 |
| A24G C37A | 0.345 |
| A23U C38U | 0.312 |
| A22U G57U | 0.366 |
| A23G G51U | 1.01 |
| A24C U67A | 0.185 |
| A24C U67G | 0.27 |
| A22G U70G | 0.658 |
| A22G U70A | 0.81 |
| A23U A43C | 0.141 |
| A22G U52A | 0.853 |
| A24C A36U | 0.556 |
| A23U G69C | 0.325 |
| A23U G69A | 0.335 |
| A23G A31U | 0.0848 |

| Variant | self-cleavage |
| --- | --- |
| A23U U70C | 0.909 |
| A23G G69A | 0.369 |
| A24C A26U | 0.463 |
| A24C A26C | 0.338 |
| A24C A26G | 0.835 |
| A22C G29C | 0.0774 |
| A22U A28C | 0.561 |
| A22U A28U | 0.67 |
| A24C G25C | 0.315 |
| A23U C65G | 0.159 |
| A22C G25A | 0.247 |
| A22U G32A | 0.122 |
| A24C U70A | 0.985 |
| A22U U53G | 0.817 |
| A23U U60A | 0.819 |
| A22G A47G | 0.135 |
| A23G U52A | 0.899 |
| A23G U52C | 0.713 |
| A24C A49G | 0.535 |
| A22C C50U | 0.405 |
| A23U G34U | 1.34 |
| A23U A59C | 0.0742 |
| A23U A59U | 0.189 |
| A23U A71G | 0.876 |

| Variant | self-cleavage |
| --- | --- |
| A23U U62G | 0.171 |
| A23U U62C | 0.247 |
| A23U A30U | 0.0692 |
| A22G G27A | 0.522 |
| A23U A31C | 0.147 |
| A23U A31G | 0.805 |
| A24G A36U | 0.397 |
| A22G A31G | 0.744 |
| A22G A31C | 0.159 |
| A24C C38A | 0.228 |
| A23C U63G | 0.273 |
| A23C U63A | 0.238 |
| A23C G25C | 0.147 |
| A23C G25U | 0.172 |
| A23C A41U | 0.911 |
| A23C A41C | 0.948 |
| A22U U63A | 0.155 |
| A22C U33A | 0.0448 |
| A22C U33C | 0.155 |
| A22G A41C | 1.01 |
| A22G A41U | 0.921 |
| A22G G56U | 0.0693 |
| A22G G56A | 0.185 |
| A24C A28G | 1.13 |

| Variant | self-cleavage |
| --- | --- |
| A24C A28U | 0.592 |
| A22C U60G | 0.484 |
| A22C U60A | 0.664 |
| A22C U60C | 1.16 |
| A23C U70C | 1.06 |
| A22G U33G | 0.111 |
| A22U U70C | 0.876 |
| A23G G57U | 0.142 |
| A24G A71G | 1.07 |
| A24G A71U | 0.667 |
| A24C C37A | 0.352 |
| A23U U52C | 0.677 |
| A23U U52A | 0.947 |
| A22U C37G | 0.339 |
| A23G C38G | 0.186 |
| A24C G51U | 0.878 |
| A22C G40C | 0.123 |
| A22C G54A | 0.587 |
| A22C G54U | 0.514 |
| A22C U58C | 0.94 |
| A24C C48G | 0.133 |
| A22G A24U | 1.08 |
| A22G A24G | 0.808 |
